Laboratory results: the PETadex activity labels (doi:10.1016/s0021-9258(17)37371-4)

Substrate: Acetylcholine
Settings: pH 8; 27 °C

Protein	Km [µM]	kcat [s⁻¹]	kcat/Km [M⁻¹ s⁻¹]
unnamed (protein) MRPPQCLLHTPSLASPLLLLLLWLLGGGVGAEGREDAELLVTVRGGRLRGIRLKTPGGPVSAFLGIPFAEPPMGPRRFLPPEPKQPWSGVVDATTFQSVCYQYVDTLYPGFEGTEMWNPNRELSEDCLYLNVWTPYPRPTSPTPVLVWIYGGGFASGASSLDVYDGRFLVQAERTVLVSMNYRVGAFGFLALPGSREAPGNVGLLDQRLALQWVQENVAAFGGDPTSVTLFGESAGAASVGMHLLSPPSRGLFHRAVLQSGAPNGPWATVGMGEARRRATQLAHLVGCPPGGTGGNDTELVACLRTRPAQVLVNHEWHVLPQESVFRFSFVPVVDGDFLSDTPEALINAGDFHGLQVLVGVVKDEGSYFLVYGAPGFSKDNESLISRAEFLAGVRVGVPQVSDLAAEAVVLHYTDWLHPEDPARLREALSDVVGDHNVVCPVAQLAGRLAAQGARVYAYVFEHRASTLSWPLWMGVPHGYEIEFIFGIPLDPSRNYTAEEKIFAQRLMRYWANFARTGDPNEPRDPKAPQWPPYTAGAQQYVSLDLRPLEVRRGLRAQACAFWNRFLPKLLSATDTLDEAERQWKAEFHRWSSYMVHWKNQFDHYSKQDRCSDL	250	4170	1.67e+07
unnamed (protein) MRPPQCLLHTPSLASPLLLLLLWLLGGGVGAEGREDAELLVTVRGGRLRGIRLKTPGGPVSAFLGIPFAEPPMGPRRFLPPEPKQPWSGVVDATTFQSVCYQYVDTLYPGFEGTEMWNPNRELSEDCLYLNVWTPYPRPTSPTPVLVWIYGGGFASGASSLDVYDGRFLVQAERTVLVSMNYRVGAFGFLALPGSREAPGNVGLLDQRLALQWVQENVAAFGGDPTSVTLFGESAGAASVGMHLLSPPSRGLFHRAVLQSGAPNGPWATVGMGEARRRATQLAHLVGCPPGGTGGNDTELVACLRTRPAQVLVNHAAHVLPQESVFRFSFVPVVDGDFLSDTPEALINAGDFHGLQVLVGVVKDEGSYFLVYGAPGFSKDNESLISRAEFLAGVRVGVPQVSDLAAEAVVLHYTDWLHPEDPARLREALSDVVGDHNVVCPVAQLAGRLAAQGARVYAYVFEHRASTLSWPLWMGVPHGYEIEFIFGIPLDPSRNYTAEEKIFAQRLMRYWANFARTGDPNEPRDPKAPQWPPYTAGAQQYVSLDLRPLEVRRGLRAQACAFWNRFLPKLLSATDTLDEAERQWKAEFHRWSSYMVHWKNQFDHYSKQDRCSDL	280	2330	8.33e+06
unnamed (protein) MRPPQCLLHTPSLASPLLLLLLWLLGGGVGAEGREDAELLVTVRGGRLRGIRLKTPGGPVSAFLGIPFAEPPMGPRRFLPPEPKQPWSGVVDATTFQSVCYQYVDTLYPGFEGTEMWNPNRELSEDCLYLNVWTPYPRPTSPTPVLVWIYGGGFYSGASSLDVYDGRFLVQAERTVLVSMNYRVGAFGFLALPGSREAPGNVGLLDQRLALQWVQENVAAFGGDPTSVTLFGESAGAASVGMHLLSPPSRGLFHRAVLQSGAPNGPWATVGMGEARRRATQLAHLVGCPPGGTGGNDTELVACLRTRPAQVLVNHEWHVLPQESVFRFSFVPVVDGDFLSDTPEALINAGDFHGLQVLVGVVKDEGSYALVYGAPGFSKDNESLISRAEFLAGVRVGVPQVSDLAAEAVVLHYTDWLHPEDPARLREALSDVVGDHNVVCPVAQLAGRLAAQGARVYAYVFEHRASTLSWPLWMGVPHGYEIEFIFGIPLDPSRNYTAEEKIFAQRLMRYWANFARTGDPNEPRDPKAPQWPPYTAGAQQYVSLDLRPLEVRRGLRAQACAFWNRFLPKLLSATDTLDEAERQWKAEFHRWSSYMVHWKNQFDHYSKQDRCSDL	140	2830	2.02e+07
unnamed (protein) MRPPQCLLHTPSLASPLLLLLLWLLGGGVGAEGREDAELLVTVRGGRLRGIRLKTPGGPVSAFLGIPFAEPPMGPRRFLPPEPKQPWSGVVDATTFQSVCYQYVDTLYPGFEGTEMWNPNRELSEDCLYLNVWTPYPRPTSPTPVLVWIYGGGFYSGASSLDVYDGRFLVQAERTVLVSMNYRVGAFGFLALPGSREAPGNVGLLDQRLALQWVQENVAAFGGDPTSVTLFGESAGAASVGMHLLSPPSRGLFHRAVLQSGAPNGPWATVGMGEARRRATQLAHLVGCPPGGTGGNDTELVACLRTRPAQVLVNHEWHVLPQESVFRFSFVPVVDGDFLSDTPEALINAGDFHGLQVLVGVVKDEGSYFLVYGAPGFSKDNESLISRAEFLAGVRVGVPQVSDLAAEAVVLHYTDWLHPEDPARLREALSDVVGDHNVVCPVAQLAGRLAAQGARVYAYVFEHRASTLSWPLWMGVPHGYEIEFIFGIPLDPSRNYTAEEKIFAQRLMRYWANFARTGDPNEPRDPKAPQWPPYTAGAQQYVSLDLRPLEVRRGLRAQACAFWNRFLPKLLSATDTLDEAERQWKAEFHRWSSYMVHWKNQFDHYSKQDRCSDL	120	7000	5.83e+07
unnamed (protein) MRPPQCLLHTPSLASPLLLLLLWLLGGGVGAEGREDAELLVTVRGGRLRGIRLKTPGGPVSAFLGIPFAEPPMGPRRFLPPEPKQPWSGVVDATTFQSVCYQYVDTLYPGFEGTEMWNPNRELSEDCLYLNVWTPYPRPTSPTPVLVWIYGGGFYSGASSLDVYDGRFLVQAERTVLVSMNYRVGAFGFLALPGSREAPGNVGLLDQRLALQWVQENVAAFGGDPTSVTLFGESAGAASVGMHLLSPPSRGLFHRAVLQSGAPNGPWATVGMGEARRRATQLAHLVGCPPGGTGGNDTELVACLRTRPAQVLVNHEAHVLPQESVFRFSFVPVVDGDFLSDTPEALINAGDFHGLQVLVGVVKDEGSYFLVYGAPGFSKDNESLISRAEFLAGVRVGVPQVSDLAAEAVVLHYTDWLHPEDPARLREALSDVVGDHNVVCPVAQLAGRLAAQGARVYAYVFEHRASTLSWPLWMGVPHGYEIEFIFGIPLDPSRNYTAEEKIFAQRLMRYWANFARTGDPNEPRDPKAPQWPPYTAGAQQYVSLDLRPLEVRRGLRAQACAFWNRFLPKLLSATDTLDEAERQWKAEFHRWSSYMVHWKNQFDHYSKQDRCSDL	200	5330	2.67e+07
unnamed (protein) MRPPQCLLHTPSLASPLLLLLLWLLGGGVGAEGREDAELLVTVRGGRLRGIRLKTPGGPVSAFLGIPFAEPPMGPRRFLPPEPKQPWSGVVDATTFQSVCYQYVDTLYPGFEGTEMWNPNRELSEDCLYLNVWTPYPRPTSPTPVLVWIYGGGFYSGASSLDVYDGRFLVQAERTVLVSMNYRVGAFGFLALPGSREAPGNVGLLDQRLALQWVQENVAAFGGDPTSVTLFGESAGAASVGMHLLSPPSRGLFHRAVLQSGAPNGPWATVGMGEARRRATQLAHLVGCPPGGTGGNDTELVACLRTRPAQVLVNHEWHVLPQESVFRFSFVPVVDGDFLSDTPEALINAGDFHGLQVLVGVVKDEGSFFLVYGAPGFSKDNESLISRAEFLAGVRVGVPQVSDLAAEAVVLHYTDWLHPEDPARLREALSDVVGDHNVVCPVAQLAGRLAAQGARVYAYVFEHRASTLSWPLWMGVPHGYEIEFIFGIPLDPSRNYTAEEKIFAQRLMRYWANFARTGDPNEPRDPKAPQWPPYTAGAQQYVSLDLRPLEVRRGLRAQACAFWNRFLPKLLSATDTLDEAERQWKAEFHRWSSYMVHWKNQFDHYSKQDRCSDL	160	6670	4.17e+07
unnamed (protein) MRPPQCLLHTPSLASPLLLLLLWLLGGGVGAEGREDAELLVTVRGGRLRGIRLKTPGGPVSAFLGIPFAEPPMGPRRFLPPEPKQPWSGVVDATTFQSVCYQYVDTLYPGFEGTEMANPNRELSEDCLYLNVWTPYPRPTSPTPVLVWIYGGGFYSGASSLDVYDGRFLVQAERTVLVSMNYRVGAFGFLALPGSREAPGNVGLLDQRLALQWVQENVAAFGGDPTSVTLFGESAGAASVGMHLLSPPSRGLFHRAVLQSGAPNGPWATVGMGEARRRATQLAHLVGCPPGGTGGNDTELVACLRTRPAQVLVNHEWHVLPQESVFRFSFVPVVDGDFLSDTPEALINAGDFHGLQVLVGVVKDEGSYFLVYGAPGFSKDNESLISRAEFLAGVRVGVPQVSDLAAEAVVLHYTDWLHPEDPARLREALSDVVGDHNVVCPVAQLAGRLAAQGARVYAYVFEHRASTLSWPLWMGVPHGYEIEFIFGIPLDPSRNYTAEEKIFAQRLMRYWANFARTGDPNEPRDPKAPQWPPYTAGAQQYVSLDLRPLEVRRGLRAQACAFWNRFLPKLLSATDTLDEAERQWKAEFHRWSSYMVHWKNQFDHYSKQDRCSDL	93000	1330	14300
unnamed (protein) MRPPQCLLHTPSLASPLLLLLLWLLGGGVGAEGREDAELLVTVRGGRLRGIRLKTPGGPVSAFLGIPFAEPPMGPRRFLPPEPKQPWSGVVDATTFQSVCYQAVDTLYPGFEGTEMWNPNRELSEDCLYLNVWTPYPRPTSPTPVLVWIYGGGFASGASSLDVYDGRFLVQAERTVLVSMNYRVGAFGFLALPGSREAPGNVGLLDQRLALQWVQENVAAFGGDPTSVTLFGESAGAASVGMHLLSPPSRGLFHRAVLQSGAPNGPWATVGMGEARRRATQLAHLVGCPPGGTGGNDTELVACLRTRPAQVLVNHEWHVLPQESVFRFSFVPVVDGDFLSDTPEALINAGDFHGLQVLVGVVKDEGSYFLVYGAPGFSKDNESLISRAEFLAGVRVGVPQVSDLAAEAVVLHYTDWLHPEDPARLREALSDVVGDHNVVCPVAQLAGRLAAQGARVYAYVFEHRASTLSWPLWMGVPHGYEIEFIFGIPLDPSRNYTAEEKIFAQRLMRYWANFARTGDPNEPRDPKAPQWPPYTAGAQQYVSLDLRPLEVRRGLRAQACAFWNRFLPKLLSATDTLDEAERQWKAEFHRWSSYMVHWKNQFDHYSKQDRCSDL	70	4170	5.95e+07
